Experimental findings from patent US20240352075A1, “PACAP1-23 ANALOG GLYCOPEPTIDES AND METHODS FOR PRODUCING AND USING THE SAME” (priority 2021, published 2024) are described below.

Values joined by “and” are separate entries in the source; they are usually repeats but may differ in a detail not shown here. Identical values can stand only once. Where a SMILES comes first, the peptide text is derived from it. Primed or numbered codes have the meaning given here. Where no end group is shown, it is not given here. [ ]: non-standard residue; d: D form. The star is where a group is joined. ξ: configuration not given here. Glc = glucose on Ser (glucosylated Ser); Lac′ = lactose, glycoside on Ser; X1 = OCC1OC(*)C(O)C(O)C1O; Nva = CCC[C@H](N)C(=O)O; ξS = NC(CO)C(=O)O; Sar = CNCC(=O)O

Usually Emax stands for the maximal effect, on the per cent scale that the assay sets. By EC50 is commonly meant the concentration needed to bring the measured effect to its halfway point. A higher EC50 goes with a need for much substance.

For test [1], the target named is T1, VPAC2 (Homo sapiens, UniProt P41587).
T1 construct: 3xHA (N)
T1 sequence (P41587 24-438): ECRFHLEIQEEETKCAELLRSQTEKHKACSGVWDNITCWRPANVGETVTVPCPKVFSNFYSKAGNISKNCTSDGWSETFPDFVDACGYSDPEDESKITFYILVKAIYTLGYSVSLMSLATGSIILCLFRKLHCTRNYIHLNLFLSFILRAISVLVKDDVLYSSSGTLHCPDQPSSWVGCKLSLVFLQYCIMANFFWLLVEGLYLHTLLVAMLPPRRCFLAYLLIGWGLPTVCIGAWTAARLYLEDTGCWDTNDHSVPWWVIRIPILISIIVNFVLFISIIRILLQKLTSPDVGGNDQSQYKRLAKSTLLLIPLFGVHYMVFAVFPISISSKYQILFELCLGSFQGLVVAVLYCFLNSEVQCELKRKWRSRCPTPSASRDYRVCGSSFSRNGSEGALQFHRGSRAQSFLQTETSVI
Kind of test: cAMP accumulation assay in CHO cells stably expressing VPAC2. It counts as cell-based. The conditions noted are these: for Emax: CHO.

Test [2] has as its target T2, VPAC1 (Homo sapiens, UniProt P32241).
T2 construct: 3xHA (N)
T2 sequence (P32241 31-457): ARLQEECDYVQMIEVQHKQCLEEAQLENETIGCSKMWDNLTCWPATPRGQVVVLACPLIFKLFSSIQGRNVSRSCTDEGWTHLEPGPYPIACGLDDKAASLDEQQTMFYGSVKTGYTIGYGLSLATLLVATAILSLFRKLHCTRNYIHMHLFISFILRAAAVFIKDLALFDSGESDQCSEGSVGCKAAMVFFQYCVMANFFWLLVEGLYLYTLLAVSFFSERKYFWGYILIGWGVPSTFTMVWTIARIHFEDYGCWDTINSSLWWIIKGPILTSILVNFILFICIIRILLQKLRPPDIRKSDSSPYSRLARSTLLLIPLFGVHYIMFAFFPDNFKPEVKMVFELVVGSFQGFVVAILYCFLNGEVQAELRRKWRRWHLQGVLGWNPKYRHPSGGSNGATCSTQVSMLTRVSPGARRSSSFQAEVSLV
Kind of test: cAMP accumulation assay in CHO cells stably expressing VPAC1. Type of test: cell-based. The following applies: for Emax: CHO. On the technique in general: Cyclic AMP is a second messenger, typically raised through Gs and lowered through Gi signalling.

The target in test [3] is T3, PAC1 (Homo sapiens, UniProt P41586).
T3 construct: 3xHA (N)
T3 sequence (P41586 21-468): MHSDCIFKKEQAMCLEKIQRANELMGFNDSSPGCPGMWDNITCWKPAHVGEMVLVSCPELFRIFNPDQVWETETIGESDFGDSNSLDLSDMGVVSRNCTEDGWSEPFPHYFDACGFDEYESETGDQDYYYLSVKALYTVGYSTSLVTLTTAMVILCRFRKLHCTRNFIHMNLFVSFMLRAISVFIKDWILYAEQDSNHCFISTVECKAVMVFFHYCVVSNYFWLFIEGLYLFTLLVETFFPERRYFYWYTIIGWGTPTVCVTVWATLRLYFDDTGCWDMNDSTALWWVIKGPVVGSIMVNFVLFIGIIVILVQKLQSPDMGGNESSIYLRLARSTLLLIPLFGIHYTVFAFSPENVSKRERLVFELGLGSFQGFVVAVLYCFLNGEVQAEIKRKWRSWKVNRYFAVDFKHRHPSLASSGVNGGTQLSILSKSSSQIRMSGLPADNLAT
Kind of test: cAMP accumulation assay in CHO cells stably expressing PAC1. Type of test: cell-based. The following applies: for Emax: CHO.
Procedure: Cell Culture: CHO cells stably expressing cloned PAC1, VPAC1, and VPAC2 were produced by electroporation with human PAC1/VPAC1/VPAC2 N-3×HA tag cDNA constructs (GeneCopocia). Cells were grown on 10 cm dishes in DMEM/F-12 50/50 mix w/L-glutamine & 15 mM HEPES (Corning) containing 10% heat inactivated fetal bovine serum, 100 units/mL penicillin, 100 μg/mL streptomycin, and 500 μg/mL G418 under 5% CO2 at 37° C. The cells were enriched into high expressing populations using flow cytometry, selecting the top ˜2% of expressing cells.
CAMP Accumulation Assay: At ˜80% confluence, cells were plated into 96-well plates (20.000 cells/well) and grown in the same medium and conditions as described above for 24 hrs. The cells were then serum starved for 4 hr. After a 20 min incubation at 37° C. with 500 μM 3-Isobutyl-1-methylxanthine (IBMX), serum free medium containing 500 μM IBMX and the appropriate agonists were added and then incubated for 10 min at 37° C. The reaction was terminated by removing the medium and adding 60 μL of ice-cold assay buffer (50 mM Tris-HCl pH 7.4, 100 mM NaCl, 5 mM ethylenediaminetetraacetic acid [EDTA]). Plates were sealed with boiling mats and then boiled at 95° C. for 10 min. Plates were then centrifuged at 4000 rpm, 4° C., for 10 min to remove debris. 50 μL of lysate was transferred to a 96-well plate. Lysate was incubated with ˜1 μmol 3H-CAMP (PerkinElmer), and 7 μg protein kinase A (Sigma Aldrich) with 0.05% Bovine Serum Albumin (BSA). The assay was incubated at room temperature for 1 hr. The reactions were then harvested onto GF/B filter plates (PerkinElmer) via rapid filtration by a 96-well plate Cell Harvester (Brandel) and washed 3 times with ice-cold water. Filter plates were dried, 40 μL of Microscint-PS scintillation cocktail was added to each well, and then counted in a TopCount or Microbeta2 (PerkinElmer) microplate scintillation counter.

Test [4] deals with T4, human VPAC2 (human, UniProt P41587 24-438).
T4 sequence (looked up): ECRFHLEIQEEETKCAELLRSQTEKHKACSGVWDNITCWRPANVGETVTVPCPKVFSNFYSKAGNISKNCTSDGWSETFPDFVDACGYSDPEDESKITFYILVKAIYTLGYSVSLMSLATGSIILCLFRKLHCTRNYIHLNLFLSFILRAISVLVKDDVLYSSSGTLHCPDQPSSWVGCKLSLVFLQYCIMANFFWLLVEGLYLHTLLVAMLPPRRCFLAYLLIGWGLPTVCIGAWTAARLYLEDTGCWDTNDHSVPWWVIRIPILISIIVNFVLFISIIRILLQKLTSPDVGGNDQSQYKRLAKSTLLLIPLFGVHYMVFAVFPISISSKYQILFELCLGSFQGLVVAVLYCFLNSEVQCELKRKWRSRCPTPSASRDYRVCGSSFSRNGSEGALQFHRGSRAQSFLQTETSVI
Kind of test: cell-based or functional assay.

Test [5] has as its target T5, human PAC1 (human, UniProt P41586 21-468).
T5 sequence (looked up): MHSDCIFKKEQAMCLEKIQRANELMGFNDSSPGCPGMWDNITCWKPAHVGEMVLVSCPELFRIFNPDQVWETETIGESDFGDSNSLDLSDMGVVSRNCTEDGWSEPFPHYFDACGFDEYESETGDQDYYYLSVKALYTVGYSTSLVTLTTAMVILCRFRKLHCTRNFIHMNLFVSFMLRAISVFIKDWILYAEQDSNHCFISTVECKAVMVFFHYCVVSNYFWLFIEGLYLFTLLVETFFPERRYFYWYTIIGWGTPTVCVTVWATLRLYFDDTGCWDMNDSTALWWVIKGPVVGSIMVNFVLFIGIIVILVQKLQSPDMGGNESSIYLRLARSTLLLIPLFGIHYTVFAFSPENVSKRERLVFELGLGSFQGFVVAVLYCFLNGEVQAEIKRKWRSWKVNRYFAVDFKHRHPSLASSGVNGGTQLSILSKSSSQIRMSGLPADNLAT
Kind of test: cell-based or functional assay.

The target of test [6] is T6, human VPAC1 (human, UniProt P32241 31-457).
T6 sequence (looked up): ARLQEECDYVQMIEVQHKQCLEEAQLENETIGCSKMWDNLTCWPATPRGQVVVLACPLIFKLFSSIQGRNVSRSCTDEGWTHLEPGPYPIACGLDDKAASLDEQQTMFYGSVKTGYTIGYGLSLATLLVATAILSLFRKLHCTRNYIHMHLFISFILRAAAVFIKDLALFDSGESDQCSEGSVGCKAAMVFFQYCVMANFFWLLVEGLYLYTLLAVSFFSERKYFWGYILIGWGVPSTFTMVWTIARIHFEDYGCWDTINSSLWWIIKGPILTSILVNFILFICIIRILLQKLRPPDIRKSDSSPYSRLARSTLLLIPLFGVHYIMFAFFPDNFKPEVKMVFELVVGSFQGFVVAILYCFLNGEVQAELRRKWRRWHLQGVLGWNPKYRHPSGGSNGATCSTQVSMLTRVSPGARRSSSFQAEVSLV
Kind of test: cell-based or functional assay.

In test [7] the target is T4, human VPAC2. Kind of test: cell-based or functional assay. This is another data set of the same source.
For test [8], the target named is T6, human VPAC1. Kind of test: cell-based or functional assay. The source holds these as a separate data set.
Setting [9] is: Table 3, in vitro cAMP stimulation, NC = No Convergence (no activity).

As for `CCC[C@H](NC(=O)[C@H](CCC(N)=O)NC(=O)[C@H](CCCCN)NC(=O)[C@H](CCCNC(=N)N)NC(=O)[C@H](Cc1ccc(O)cc1)NC(=O)[C@H](CCCNC(=N)N)NC(=O)[C@H](CO)NC(=O)[C@H](Cc1ccc(O)cc1)NC(=O)[C@H](CO)NC(=O)[C@H](CC(=O)O)NC(=O)[C@@H](NC(=O)[C@H](Cc1ccccc1)NC(=O)[C@@H](NC(=O)CNC(=O)[C@H](CC(=O)O)NC(=O)[C@H](CO)NC(=O)[C@@H](N)Cc1c[nH]cn1)[C@@H](C)CC)[C@@H](C)O)C(=O)N[C@@H](C)C(=O)N[C@H](C(=O)N[C@@H](CCCCN)C(=O)N[C@@H](CCCCN)C(=O)N[C@@H](Cc1ccc(O)cc1)C(=O)N[C@@H](CC(C)C)C(=O)N[C@@H](CO)C(N)=O)C(C)C` [CRA-DV-3022] (H-HSDGIFTDSYSRYRKQ[Nva]AVKKYLS-NH2), the Emax in test [1] was 111%; in test [1] (setting [9]), 91%; in test [2], 42% and 94%; in test [3], 198%. Also, the EC50 in test [1] (Table 1, cAMP stimulation, CHO cells, NC not defined here (Table 3: No Convergence)) stood at 571 nM; in test [1] (setting [9]), 571 nM; in test [2] (Table 1, cAMP stimulation, CHO cells), 5.2 nM; in test [3] (Table 3, in vitro cAMP stimulation), 2.2 nM.

For `CCC[C@H](NC(=O)[C@H](CCC(N)=O)NC(=O)[C@H](CCCCN)NC(=O)[C@H](CCCNC(=N)N)NC(=O)[C@H](Cc1ccc(O)cc1)NC(=O)[C@H](CCCNC(=N)N)NC(=O)[C@H](CO)NC(=O)[C@H](Cc1ccc(O)cc1)NC(=O)[C@H](CO)NC(=O)[C@H](CC(=O)O)NC(=O)[C@@H](NC(=O)[C@H](Cc1ccccc1)NC(=O)[C@@H](NC(=O)CNC(=O)[C@H](CC(=O)O)NC(=O)[C@H](CO)NC(=O)[C@@H](N)Cc1c[nH]cn1)[C@@H](C)CC)[C@@H](C)O)C(=O)N[C@@H](C)C(=O)N[C@H](C(=O)N[C@@H](CCCCN)C(=O)N[C@@H](CCCCN)C(=O)N[C@@H](Cc1ccc(O)cc1)C(=O)N[C@@H](CC(C)C)C(=O)NC(COC1OC(CO)C(O)C(O)C1O)C(=O)NC(COC1OC(CO)C(O)C(O)C1O)C(N)=O)C(C)C` (some centres unmarked) [CRA-DV-3024] (H-HSDGIFTDSYSRYRKQ[Nva]AVKKYL[ξS](X1)[ξS](X1)-NH2), the maximal response (Emax) in test [1] (setting [9]) is 130%; in test [2], 127%; in test [3], 152%.

Take HSDGIFTDSYSRYRKQ[Nva]AVKKYLS(Glc)S(Glc)-NH2 [CRA-DV-3024]: the figures for the “cAMP stimulation EC50” value in test [4], in test [5] and in test [6] were 7370 nM, 1.9 nM and 26 nM, respectively. For the same molecule, the “cAMP stimulation Emax” value in test [4] turned out to be 130%; in test [5] it was 152%; in test [6], 127%. Also, the “cAMP stimulation Emax (Table 1, differs from Table 3)” value in test [7] was 128%; in test [8], 147%.

As to HSDGIFTDSYSRYRKQ[Nva]AVKKYLS(Lac′)-NH2 [CRA-TG-3025], the entries for the “cAMP stimulation EC50” value in test [5] and in test [6] were 1.8 nM and 21 nM, respectively. Besides, the “cAMP stimulation Emax (Table 1, differs from Table 3)” value in test [8] was found to be 118%.

With HSDGIFTDSYSRYRKQ[Nva]AVKKYLS-NH2 (not fully specified) [CRA-DV-3022], the “cAMP stimulation EC50” value in test [4] came to 571 nM; in test [5], 2.2 nM; in test [6], 5.2 nM. Moreover, the “cAMP stimulation Emax” value in test [4] is 91%; in test [5], 198%; in test [6], 94%. The “cAMP stimulation Emax (Table 1, differs from Table 3)” value in test [7] amounted to 111%; in test [8] it was 42%.

In the case of HSD[Sar]IFTDSYSRYRKQ[Nva]AVKKYLS(Lac′)-NH2 [CRA-TG-3027], the “cAMP stimulation EC50” value was determined as 67 nM in test [5] and 195 nM in test [6]. Also, the “cAMP stimulation Emax” value in test [5] came out at 134%; in test [6] it was 90%. Further, the “cAMP stimulation Emax (Table 1, differs from Table 3)” value in test [8] turned out to be 107%.
